The values that follow come from publication PMC9015690 (Science signaling, 2021).

The assay has as its target Wild type CXCL12 (CXCL12-WT) (UniProt P48061-2 22-89). Nature of the assay: ITC. (Isothermal titration calorimetry measures the heat released or taken up as one component is titrated into another.)

Wild type CXCL12 (CXCL12-WT), sequence (P48061 22-89): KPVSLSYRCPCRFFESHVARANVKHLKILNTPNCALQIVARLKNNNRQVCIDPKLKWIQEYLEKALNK

B1: ACKR1^N-term, sixty-amino acid peptide corresponding to the extracellular N-terminus of ACKR1 (domain or fragment, UniProt Q16570 1-60, looked up)
chain: MGNALHRAELSPSTENSSQLDFEDVWNSSYGVNDSFPDGDYGANLEAAAPAHSANLLDDS
As to B1, the affinity, expressed as Kd, was 4 µM and the “stoichiometry N” value is ~0.5.

For orientation: Kd means the constant that tells how readily two partners part at equilibrium. Lower therefore signals higher affinity. In general, stoichiometry N refers to a count of units in the complex or per binding partner.
